From PMC4935968, “Engineering biosynthesis of the anticancer alkaloid noscapine in yeast” (Nature Communications, 2016)

Target: T1, hexa-histidine tagged PsMT2 (Papaver somniferum, UniProt I3PLQ6 1-356)
T1 construct: PsMT2, O-methyltransferase of the noscapine gene cluster of Papaver somniferum; gene codon-optimised for S. cerevisiae, amplified with primers PsMT2-pET-F/R and inserted into pET28a; Printed mass of the His-tagged protein is 40.09 kDa; also called His-tagged PsMT2; source: E. coli BL21(DE3), co-expressed with T7-tagged PsMT3 or Ps6OMT; complex purified (Ni-NTA agarose, then T7 tag antibody …)
T1 sequence (looked up): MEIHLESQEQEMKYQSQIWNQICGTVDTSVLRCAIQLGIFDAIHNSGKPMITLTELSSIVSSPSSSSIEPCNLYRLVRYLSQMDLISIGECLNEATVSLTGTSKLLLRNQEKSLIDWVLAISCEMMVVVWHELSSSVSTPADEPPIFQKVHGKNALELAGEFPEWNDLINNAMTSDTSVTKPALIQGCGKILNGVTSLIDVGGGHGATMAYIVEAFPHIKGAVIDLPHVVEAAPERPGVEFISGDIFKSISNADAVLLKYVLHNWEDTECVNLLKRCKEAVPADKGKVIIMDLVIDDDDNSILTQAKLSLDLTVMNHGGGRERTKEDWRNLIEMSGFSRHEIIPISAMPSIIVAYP
Experiment: pull-down; tandem affinity co-purification from lysate of E. coli co-expressing both proteins: Ni-NTA agarose (His-tagged PsMT2), eluate then on T7 tag antibody agarose (T7-tagged partner); product analysed by SDS-PAGE and western blot with Anti-6X His tag and Anti-T7 tag antibodies
Conditions: partners not purified

- binding result: binds
B1: Ps6OMT with T7 tag (enzyme, Papaver somniferum, UniProt Q6WUC1 1-346, looked up)
chain: METVSKIDQQNQAKIWKQIYGFAESLVLKCAVQLEIAETLHNNVKPMSLSELASKLPVAQPVNEDRLFRIMRYLVHMELFKIDATTQKYSLAPPAKYLLRGWEKSMVDSILCINDKDFLAPWHHLGDGLTGNCDAFEKALGKSIWVYMSVNPEKNQLFNAAMACDTRLVTSALANECKSIFSDGISTLVDVGGGTGTAVKAISKAFPDIKCTIYDLPHVIADSPEIPNITKISGDMFKSIPSADAIFMKCILHDWNDDECIQILKRCKEALPKGGKVIIVDVVIDMDSTHPYAKIRLTLDLDMMLNTGGKERTKEEWKTLFDAAGFASHKVTQISAVQSVIEAYPY
notes: norcoclaurine 6-O-methyltransferase from Papaver somniferum (Ps6OMT); also called norcoclaurine 6-O-methyltransferase from P. somniferum; source: E. coli, co-transformed with pCS3306 (His-tagged PsMT2) and pCS3534; complex purified by a similar procedure as PsMT2/PsMT3 (Ni-NTA agarose, then T7 tag antibody agarose); not shown: T7 tag, C-terminal, kept
